# Laboratory results from patent US8546537B2, “Streptavidin having low immunogenicity and use thereof” (The University of Tokyo, priority 2009, dated 2013).
# Assays:
# ROBO1 = ROBO1 (Homo sapiens, UniProt Q9Y6N7); experiment: Isothermal Titration calorimetry (ITC) of B5209B mouse-scFv-mcSA414 and ROBO1; type: binding
# Description: By Isothermal Titration calorimetry (ITC), the interaction of B5209B mouse-scFv-mcSA414 and ROBO1 was subjected to […] analysis.
# [1] = Differential Scanning calorimetry (DSC) thermal stability; type: physicochemical; settings: PBS
# Experimental: By Differential Scanning calorimetry (DSC), the thermal stability of B5209B mouse-scFv-mcSA414 was evaluated. PBS was used as a solvent. […] Accordingly, the temperature necessary for denaturation of the scFV domain of B5209B mouse-scFv-SA is assumed to be Tm 51.4° C., and the temperature necessary for the complete denaturation of a single molecule thereof is assumed to be Tm 108° C. Moreover, since the temperature for dissociation of a streptavidin domain tetramer was not detected, it is assumed that the streptavidin was completely denatured without the dissociation of a tetramer.
# [2] = Thermal shift assay of streptavidin proteins; type: physicochemical; settings: at 100° C., 10 μM protein, 1×PBS, guanidine-HCl 0 to 2 M, SYPRO Orange
# Experimental: The following 5 types of proteins, a native streptavidin, mcSA040, mcSA072, mcSA314 and mcSA414, which had been purified in accordance with Example 2, were subjected to a thermal shift assay (Vedadi, (2006), Proc Natl Sci USA., 103(43), 15835-15840). Each sample was prepared in a real-time PCR tube (PCR Tube Strip, Flat Cap Strip; manufactured by BIO-RAD), so that the samples could have the following final concentrations. That is, SYPRO Orange was 5000-fold diluted, the concentration of each protein was set at 10 μM, and the buffer was set at 1×PBS. Moreover, for the purpose of accelerating the heat denaturation of each protein, the concentration of a guanidine-HCl solution was set at 0 M, 0.5 M, 1M and 2 M as a final concentration. The reaction volume was set at 20 μl. The CFX96 Real-Time PCR detection system (manufactured by BIO-RAD) was used as a measurement device. As a program mode of the CFX96 Real-Time PCR detection system, a program mode for use in FRET detection was used. The reaction and detection were carried out by a program for increasing the temperature by 0.5° C. every 10 seconds.
# [3] = Kinetics analysis of interaction between streptavidin protein and biotin using Biacore biosensor; type: binding; settings: for Association rate constant ka / Dissociation rate constant kd: Biacore 3000, biotinylated mouse antibody captured, 1:1 binding model; for Kd: Biacore 3000, obtained from kd/ka, read-out: Dissociation constant Kd
# Experimental: As a ligand (a substance to be attached to a sensor chip) used for a Biacore (registered trademark) biosensor, an anti-mouse IgG antibody (manufactured by GE Healthcare Biosciences) was used. On the other hand, as analytes (substances to be supplied to the flow channel system), a biotinylated mouse antibody and various types of mutant streptavidins were prepared, and intermolecular interaction was then analyzed using Biacore (registered trademark) 3000 (a biosensor based on the principle of surface plasmon resonance; manufactured by GE Healthcare Biosciences). The anti-mouse IgG antibody was immobilized on all of the flow cells of a CM5 sensor chip according to an amine coupling method. The amount of the antibody immobilized on each flow cell was 8000 RU. Subsequently, as references, non-biotinylated mouse antibodies were captured onto Flow Cells 1 and 3, and biotinylated mouse antibodies were captured onto Flow Cells 2 and 4. Various types of streptavidins were loaded in a running buffer (HBS-EP; manufactured by GE Healthcare Biosciences) on Flow Cells 1 and 2, or 3 and 4, at a flow rate of 20 μl/min for 2 minutes. Thereafter, dissociation of each sample was monitored for 7 minutes. Thereafter, a reproduction operation was carried out using a 10 mM glycine-HCl buffer (pH 1.7) (manufactured by GE Healthcare Biosciences), and repeat measurement was then carried out. Using the analysis software BIAevaluation ver. 4.1, a reaction kinetics analysis was performed on a 1:1 binding model based on the obtained sensorgram, so as to calculate an association rate constant (ka) and a dissociation rate constant (kd). A dissociation constant (Kd) was obtained from kd/ka.
# The results of the kinetics analysis of the intermolecular interaction of a recombinant streptavidin and a biotin, which was carried out using Biacore (registered trademark) 3000 (a biosensor based on the principle of surface plasmon resonance; manufactured by GE Healthcare Biosciences), are as shown in Table 2.
# Sequence of ROBO1 (Q9Y6N7 26-1651, species assumed): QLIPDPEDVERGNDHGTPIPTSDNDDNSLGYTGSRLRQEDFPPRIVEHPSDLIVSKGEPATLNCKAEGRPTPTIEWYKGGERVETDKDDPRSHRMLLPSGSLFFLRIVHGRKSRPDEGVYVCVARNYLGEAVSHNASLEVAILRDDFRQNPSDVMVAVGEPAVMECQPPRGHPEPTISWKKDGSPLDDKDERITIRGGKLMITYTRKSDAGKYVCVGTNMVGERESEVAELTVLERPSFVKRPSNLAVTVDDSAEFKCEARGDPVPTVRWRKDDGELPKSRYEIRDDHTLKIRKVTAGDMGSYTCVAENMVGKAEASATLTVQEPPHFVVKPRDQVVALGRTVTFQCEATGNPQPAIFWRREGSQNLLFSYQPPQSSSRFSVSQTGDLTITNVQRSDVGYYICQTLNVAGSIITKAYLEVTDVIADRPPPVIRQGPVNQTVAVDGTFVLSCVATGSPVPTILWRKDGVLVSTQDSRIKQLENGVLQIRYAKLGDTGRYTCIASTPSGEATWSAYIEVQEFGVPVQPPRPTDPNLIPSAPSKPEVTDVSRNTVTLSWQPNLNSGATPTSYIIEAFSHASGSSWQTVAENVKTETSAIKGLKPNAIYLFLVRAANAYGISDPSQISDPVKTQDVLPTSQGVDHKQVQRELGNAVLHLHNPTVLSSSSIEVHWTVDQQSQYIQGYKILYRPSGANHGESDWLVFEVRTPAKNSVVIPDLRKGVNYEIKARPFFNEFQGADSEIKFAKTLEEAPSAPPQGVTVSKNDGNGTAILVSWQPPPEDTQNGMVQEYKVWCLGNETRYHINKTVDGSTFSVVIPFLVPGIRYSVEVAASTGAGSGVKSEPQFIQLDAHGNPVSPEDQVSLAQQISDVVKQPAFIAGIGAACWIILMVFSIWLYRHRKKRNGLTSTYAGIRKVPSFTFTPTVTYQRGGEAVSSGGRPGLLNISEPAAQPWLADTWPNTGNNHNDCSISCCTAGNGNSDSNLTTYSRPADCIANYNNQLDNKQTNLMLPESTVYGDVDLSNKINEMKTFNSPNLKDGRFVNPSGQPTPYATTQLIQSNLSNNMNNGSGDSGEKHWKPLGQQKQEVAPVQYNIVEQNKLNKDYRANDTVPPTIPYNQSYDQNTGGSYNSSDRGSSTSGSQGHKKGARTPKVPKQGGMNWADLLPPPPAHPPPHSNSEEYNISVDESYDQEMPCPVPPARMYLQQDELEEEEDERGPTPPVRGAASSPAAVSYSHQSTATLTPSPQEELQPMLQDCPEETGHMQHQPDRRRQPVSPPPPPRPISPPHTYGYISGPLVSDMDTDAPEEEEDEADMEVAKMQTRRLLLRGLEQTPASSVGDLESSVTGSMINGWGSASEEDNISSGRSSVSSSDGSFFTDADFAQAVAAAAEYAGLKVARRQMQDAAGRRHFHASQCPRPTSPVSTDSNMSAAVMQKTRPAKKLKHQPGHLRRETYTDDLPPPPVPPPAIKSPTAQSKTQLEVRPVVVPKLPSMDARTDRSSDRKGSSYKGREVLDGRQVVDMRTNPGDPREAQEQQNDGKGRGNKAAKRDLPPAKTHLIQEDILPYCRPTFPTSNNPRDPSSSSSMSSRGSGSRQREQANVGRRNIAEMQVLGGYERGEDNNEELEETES
Molecule,Association rate constant ka [3],Dissociation rate constant kd [3],Kd [3] [nM],further results
"B5209B mouse-scFv-mcSA414: fusion of anti-ROBO1 monoclonal antibody B5209B mouse scFv and mcSA414, SEQ ID NO: 16 (protein, listed as Mus sp.) MAEVQLVESGGGVVQPGGSLKLSCAASGFTFSTYDMSWVRQTPDKRLELVATINSNGGSTYYPDSVKGRFTSSRDNAKNILYLQMSSLKSEDTAMYYCAREALLRPPYYALDYWGQGTSVTVSSAGGGGSGGGGSGGGGSDILDIQMTQSPASLSASVGETVTITCGASENIYGALTWYQRKQGKSPQLLIYGAINLADDKSSRFSGSGSGRQYSLKISSLHPDDVATYYCQNVLSTPFTFGSGTKLEIKAAGSSGSGSAAEAGITGTWSNQLGSTFIVTAGADGALTGTYESAVGNAESRYVLTGRYDSAPATDGSGTALGWTVAWKNNSKNAHSATTWSGQYVGGADAKINTQWLLTSGTTQANAWKSTLVGHDTFTKVKPSAASGARHHHHHH",,,,"binding ratio: molecules of ROBO1 bound to a tetramer (ROBO1): 2; change in ΔH compared with scFV (ROBO1): no significant change; reduction in affinity compared with scFV (ROBO1): approximately one order of magnitude; ΔS value compared with scFV (ROBO1): approximately 1/40; amount of enthalpy change (ΔH) (ROBO1; 25° C., PBS): -3.85 kcal/mol; amount of entropy change (ΔS) (ROBO1; 25° C., PBS): −22 J/mol·K; temperature for dissociation of a streptavidin domain tetramer [1]: not detected; temperature necessary for denaturation of the scFV domain (Tm) [1]: 51.4 °C; temperature necessary for the complete denaturation of a single molecule (Tm) [1]: 108 °C"
"mcSA040: mutant core streptavidin with Y83S, R84K, E116Q (protein) core streptavidin subunit: AEAGITGTWYNQLGSTFIVTAGADGALTGTYESAVGNAESRYVLTGRYDSAPATDGSGTALGWTVAWKNNSKNAHSATTWSGQYVGGAEARINTQWLLTSGTTQANAWKSTLVGHDTFTKVKPSAAS",,,,thermal stability compared with native streptavidin [2]: thermal stability equivalent to that of the native streptavidin
"mcSA324: mutant core streptavidin with Y22T, Y83S, R84K, E101D, R103K, E116N (protein) core streptavidin subunit: AEAGITGTWTNQLGSTFIVTAGADGALTGTYESAVGNAESRYVLTGRYDSAPATDGSGTALGWTVAWKNNSKNAHSATTWSGQYVGGADAKINTQWLLTSGTTNANAWKSTLVGHDTFTKVKPSAAS",3.26 × 10^5 M^−1 S^−1,7.18 × 10^−5 S^−1,0.22,
"mcSA030: mutant core streptavidin with Y83S, R84K, E116N (protein) core streptavidin subunit: AEAGITGTWYNQLGSTFIVTAGADGALTGTYESAVGNAESRYVLTGRYDSAPATDGSGTALGWTVAWKNNSKNAHSATTWSGQYVGGAEARINTQWLLTSGTTNANAWKSTLVGHDTFTKVKPSAAS",,1.55 × 10^−4 S^−1,0.399,
"mcSA424: mutant core streptavidin with Y22T, Y83S, R84K, E101D, R103K, E116Q (protein) core streptavidin subunit: AEAGITGTWTNQLGSTFIVTAGADGALTGTYESAVGNAESRYVLTGRYDSAPATDGSGTALGWTVAWKNNSKNAHSATTWSGQYVGGADAKINTQWLLTSGTTQANAWKSTLVGHDTFTKVKPSAAS",1.32 × 10^5 M^−1 S^−1,1.12 × 10^−4 S^−1,0.845,
"mcSA314: mutant core streptavidin with Y22S, Y83S, R84K, E101D, R103K, E116N (protein) core streptavidin subunit: AEAGITGTWSNQLGSTFIVTAGADGALTGTYESAVGNAESRYVLTGRYDSAPATDGSGTALGWTVAWKNNSKNAHSATTWSGQYVGGADAKINTQWLLTSGTTNANAWKSTLVGHDTFTKVKPSAAS",5.99 × 10^5 M^−1 S^−1,1.58 × 10^−4 S^−1,0.264,thermal stability compared with native streptavidin [2]: thermal stability equivalent to that of the native streptavidin
"mcSA124: mutant core streptavidin with Y22T, Y83A, R84K, E101D, R103K, E116N (protein) core streptavidin subunit: AEAGITGTWTNQLGSTFIVTAGADGALTGTYESAVGNAESRYVLTGRYDSAPATDGSGTALGWTVAWKNNAKNAHSATTWSGQYVGGADAKINTQWLLTSGTTNANAWKSTLVGHDTFTKVKPSAAS",3.06 × 10^5 M^−1 S^−1,5.38 × 10^−5 S^−1,0.176,
"mcSA414: mutant core streptavidin with Y22S, Y83S, R84K, E101D, R103K, E116Q (protein) core streptavidin subunit: AEAGITGTWSNQLGSTFIVTAGADGALTGTYESAVGNAESRYVLTGRYDSAPATDGSGTALGWTVAWKNNSKNAHSATTWSGQYVGGADAKINTQWLLTSGTTQANAWKSTLVGHDTFTKVKPSAAS",2.31 × 10^5 M^−1 S^−1,5.18 × 10^−5 S^−1,0.243,thermal stability compared with native streptavidin [2]: thermal stability equivalent to that of the native streptavidin
"mcSA224: mutant core streptavidin with Y22T, Y83A, R84K, E101D, R103K, E116Q (protein) core streptavidin subunit: AEAGITGTWTNQLGSTFIVTAGADGALTGTYESAVGNAESRYVLTGRYDSAPATDGSGTALGWTVAWKNNAKNAHSATTWSGQYVGGADAKINTQWLLTSGTTQANAWKSTLVGHDTFTKVKPSAAS",2.11 × 10^5 M^−1 S^−1,1.01 × 10^−4 S^−1,0.481,
"mcSA020: mutant core streptavidin with Y83A, R84K, E116Q (protein) core streptavidin subunit: AEAGITGTWYNQLGSTFIVTAGADGALTGTYESAVGNAESRYVLTGRYDSAPATDGSGTALGWTVAWKNNAKNAHSATTWSGQYVGGAEARINTQWLLTSGTTQANAWKSTLVGHDTFTKVKPSAAS",,1.60 × 10^−4 S^−1,0.427,
"mcSA010: mutant core streptavidin with Y83A, R84K, E116N (protein) core streptavidin subunit: AEAGITGTWYNQLGSTFIVTAGADGALTGTYESAVGNAESRYVLTGRYDSAPATDGSGTALGWTVAWKNNAKNAHSATTWSGQYVGGAEARINTQWLLTSGTTNANAWKSTLVGHDTFTKVKPSAAS",,8.96 × 10^−5 S^−1,0.225,
"mcSA114: mutant core streptavidin with Y22S, Y83A, R84K, E101D, R103K, E116N (protein) core streptavidin subunit: AEAGITGTWSNQLGSTFIVTAGADGALTGTYESAVGNAESRYVLTGRYDSAPATDGSGTALGWTVAWKNNAKNAHSATTWSGQYVGGADAKINTQWLLTSGTTNANAWKSTLVGHDTFTKVKPSAAS",3.61 × 10^5 M^−1 S^−1,9.92 × 10^−5 S^−1,0.274,
"mcSA214: mutant core streptavidin with Y22S, Y83A, R84K, E101D, R103K, E116Q (protein) core streptavidin subunit: AEAGITGTWSNQLGSTFIVTAGADGALTGTYESAVGNAESRYVLTGRYDSAPATDGSGTALGWTVAWKNNAKNAHSATTWSGQYVGGADAKINTQWLLTSGTTQANAWKSTLVGHDTFTKVKPSAAS",2.64 × 10^5 M^−1 S^−1,1.21 × 10^−4 S^−1,0.459,
